Experiments:
Max 37-83 [1] = molecular target: T1, Max 37-83 (Homo sapiens, UniProt P61244); assay: single-molecule SiNW-FET electrical recording (pH 6.5)
T1 chain: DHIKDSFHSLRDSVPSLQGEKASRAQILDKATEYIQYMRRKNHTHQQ

Max 37-83 [2] = molecular target: T1, Max 37-83; assay: single-molecule SiNW-FET electrical recording (pH 7.4, 37 °C)

KRRTHNVLERQRRNELKRSFFALRDQIPELENNEKAPKVVILKKA (C-terminal cysteine added to c-Myc, immobilized on nanowire) [c-Myc 370-414] gave a Kd (Max 37-83 [1]) of 67 nM and a Kd (Max 37-83 [2]) of 205 nM.
